This assay has as its system PDX m3657. In words: PDX ALL cells co-cultured on hTERT MSCs, ASNase x ibrutinib dilution matrix, microscopy. The class given is cell-based, human. Conditions: m3657 (7 d), ibrutinib B0=0 to B9=100. On the procedure:
After 2-4 months these mice developed full blown leukemia with an immunophenotype and genetic composition that in the large majority of cases is identical to the original material at the time of injection.
Briefly, hTERT immortalized MSCs were seeded in either a 384 wells format (microscopy) or a 96 wells format (7AAD staining) and allowed to settle for 24 hours prior to the addition of ALL xenografts. […] After 3 and 7 days of incubation, cell death was analyzed using microscopy using live cells staining or flowcytometry using 7AAD to discriminate between live or dead cells.

B1: ASNase: native E. coli ASNase (NCBI WP_000394140.1), used in the in vitro studies (protein, UniProt P00805 23-348, looked up)
L-asparaginase 2: LPNITILATGGTIAGGGDSATKSNYTVGKVGVENLVNAVPQLKDIANVKGEQVVNIGSQDMNDNVWLTLAKKINTDCDKTDGFVITHGTDTMEETAYFLDLTVKCDKPVVMVGAMRPSTSMSADGPFNLYNAVVTAADKASANRGVLVVMNDTVLDGRDVTKTNTTDVATFKSVNYGPLGYIHNGKIDYQRTPARKHTSDTPFDVSKLNELPKVGIVYNYANASDLPAKALVDAGYDGIVSAGVGNGNLYKSVFDTLATAAKTGTAVVRSSRVPTGATTQDAEVDDAKYGFVASGTLNPQKARVLLQLALTQTKDPQQIQQIFNQY
B1: the “live cells by automated microscopy (table names no quantity)” value is, setting by setting: (ASNase A1=0.01) 3562; (ASNase A2=0.03) 4473; (ASNase A3=0.1) 4173; (ASNase A4=0.3) 1159; (ASNase A5=1) 3935; (ASNase A6=3) 3317. Also, the “live cells by automated microscopy (table names no quantity)” value is, setting by setting: (ASNase A7=10) 4220; (ASNase A8=32) 723; (ASNase A9 (A=100)) 17.

These data come from US20220362357A1, “Synergistic Combinations of Amino Acid Depletion Agent Sensitizers (AADAS) and Amino Acid Depletion Agents (AADA), and Therapeutic Methods of Use Thereof” (STICHTING RADBOUD UNIVERSITAIR MEDISCH CENTRUM, priority 2018, published 2022).
